From patent publication US20220064329A1 (Novo Nordisk, published 2022)
Changes are numbered by the printed parent chain. Names and notes keep the numbering of the source.

T1: recombinant human activated Factor VII (FVIIa) (human, UniProt P08709 61-212; P08709 213-466, Gla domain: ten glutamate residues may be gamma-carboxylated)
T1 sequence 1: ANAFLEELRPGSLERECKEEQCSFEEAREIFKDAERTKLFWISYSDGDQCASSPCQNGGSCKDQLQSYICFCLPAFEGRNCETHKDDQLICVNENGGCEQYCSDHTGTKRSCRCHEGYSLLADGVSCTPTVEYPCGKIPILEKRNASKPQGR
T1 sequence 2: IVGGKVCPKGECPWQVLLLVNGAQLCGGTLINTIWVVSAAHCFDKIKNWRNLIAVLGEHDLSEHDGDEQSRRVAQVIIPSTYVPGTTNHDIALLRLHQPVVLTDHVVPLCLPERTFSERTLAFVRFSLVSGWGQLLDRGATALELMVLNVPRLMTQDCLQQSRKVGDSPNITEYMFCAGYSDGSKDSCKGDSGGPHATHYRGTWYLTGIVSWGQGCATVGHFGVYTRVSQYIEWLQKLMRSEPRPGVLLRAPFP

T2: recombinant human activated Factor VII (FVIIa) (human, UniProt P08709 61-212; P08709 213-466, ten glutamate residues of the Gla domain may be gamma-carboxylated)
T2 construct: chains tethered by a disulfide bond; also called Factor VIIa; rFVIIa
T2 sequence 1: T1 sequence 1
T2 sequence 2: T1 sequence 2

B1: mAb7250 (antibody, V domains shown)
VH: EVQLVESGGGLVKPGGSLRLSCAASGFTFTSYSMSWVRQAPGKGLEWVSSISSRSSYICYADSVKGRFTISRDNAKNSLYLQMNSLRAEDTAVYYCAREGDTGSIGGDYMDVWGKGTTVTVSS
VL: not shown
B2: mAb0013 (antibody, V domains shown)
VH: QIQLVQSGPELKKPGETVKISCKASGYTFTDYSIQWVKQAPGKGLKWMGWINTETGKPSYADDLKGRSAFSLETSGSTAYLQISNLKNEDMATYFCVRDDYYGREDYWGQGTTLTVSS
VL: DIVMTQSPSSLTVTAGEKVTVSCKSSQSLLNSGDQKNYLTWYQQKPGQPPKLLIYWASTRESGVPDRFTGSGSGTDFTLTISSVQAEDLAVYYCQNDFSYPYTFGGGTKLEIK
B3: mAb0701 (antibody, V domains shown)
VH: QIQLQQSGPELVKPGTSVKMACKASDYTFTDYYLHWVKQRPGQGLEWIGWIYPGSGNTKFNEKFKGKATLTVDTSSSTAYMHLSSLTSDDTAVYFCTRVLGRGAMDYWGQGTSVTVSS
VL: DIVLTQSPPSLAVSLGQRAIISCKASQSVSFAGTSLMYWYQQKPGQQPKVLMYRASNLEAGVPIRFSGSGSGTDFTLNIHPVEEDDVATYYCQQSREYPYTFGGGTKLEIK
B4: VH SEQ ID NO 650 / VL SEQ ID NO 486 (antibody, IgG4, V domains shown)
VH: QVQLQESGPGLVKPSQTLSLTCTVSGYSISSDSAWSWIRQPPGKKLEWIGYIQYSGSTNYNPSLKSRVTISRDTSKNQFSLKLSSVTAADTAVYYCARSVNYYGNSFAVGPWGQGTLVTVSS
VL: EIVLTQSPATLSLSPGERATLSCRASQGVSDYLHWYQQKPGQAPRLLIKYASQPATGIPARFSGSGSGTDFTLTISSLEPEDFGVYYCQNGHSFPLTFGQGTKLEIK
notes: humanized 11F2; IgG4 S228P/kappa
B5: VH SEQ ID NO 514 / VL SEQ ID NO 326 (antibody, IgG4, V domains shown)
VH: B4 VH with K13E, Q16D, T23A, S30T, I70M, A89L, P111Y
VL: B4 VL with V29I, Q42E, A51T, Q100A, I106L
notes: as for B4
B6: VH SEQ ID NO 514 / VL SEQ ID NO 342 (antibody, IgG4, V domains shown)
VH: B4 VH with K13E, Q16D, T23A, S30T, I70M, A89L, P111Y
VL: B4 VL with V29I, A51T, T69R, G84A, Q100A, I106L
notes: as for B4
B7: VH SEQ ID NO 650 / VL SEQ ID NO 502 (antibody, IgG4, V domains shown)
VH: B4 VH
VL: B4 VL with A51T, G84A
notes: as for B4
B8: VH SEQ ID NO 650 / VL SEQ ID NO 494 (antibody, IgG4, V domains shown)
VH: B4 VH
VL: B4 VL with F83V, G84A
notes: as for B4
B9: mAb0109 (antibody, human IgG4 S228P, kappa, V domains shown)
VH: DVQLQESGPGLVEPSQSLSLTCTVTGYSITSDSAWSWIRQFPGNKLEWMGYIQYSGSTNYNPSLKSRISVTRDTSKNQFFLRLSSVTAEDTATYYCTRSVNYYGNSFAVGYWGQGTSVTVSS
VL: EIVLTQSPATLSLSPGERATLSCRASQGISDYLHWYQQKPGEAPRLLIKYTSQPATGIPARFSGSGSGTDFTLTISSLEPEDVGVYYCQSGHSFPLTFGAGTKLELKR
notes: humanized 11F2 variant, first round
B10: mAb0112 (antibody, human IgG4 S228P, kappa, V domains shown)
VH: B4 VH with Q1D, K13E, S30T, P41F, I49M, A89E, A108W, P111Y, L117S
VL: B9 VL with S90N
notes: as for B9
B11: mAb0110 (antibody, human IgG4 S228P, kappa, V domains shown)
VH: B4 VH with Q1D, K45G, A108W, G110D
VL: DIVMTQSPATLSVTAGDRVSLSCRASQGISDYLHWYQQKSHESPRLLIKYTSQPVSGIPSRFSGSGSGSEFTLSINSVEPEDVGVYYCQNGHSFPLTFGAGTKLELKR
notes: as for B9
B12: mAb0115 (antibody, human IgG4 S228P, kappa, V domains shown)
VH: B4 VH with Q1D, K13E, S30T, I49M, A89E, P111Y, L117S
VL: B9 VL with S90N
notes: as for B9
B13: mAb0122 (antibody, human IgG4 S228P, kappa)
heavy: not shown
light: EIVLTQSPATLSLSPGERATLSCRASQGISDYLHWYQQKPGEAPRLLIKYTSQPATGIPARFSGSGSGTDFTLTISSLEPEDVGVYYCQNGHSFPLTFGQGTKLELKRTVAAPSVFIFPPSDEQLKSGTASVVCLLNNFYPREAKVQWKVDNALQSGNSQESVTEQDSKDSTYSLSSTLTLSKADYEKHKVYACEVTHQGLSSPVTKSFNRGEC
notes: as for B9
B14: mAb0121 (antibody, human IgG4 S228P, kappa, V domains shown)
VH: B4 VH with Q1D, K13E, S30T, P41F, I49M, A89E, L117S
VL: B9 VL with S90N
notes: as for B9
B15: mAb0116 (antibody, human IgG4 S228P, kappa, V domains shown)
VH: B4 VH with Q1D, K13E, S30T, P41F, I49M, A89E, G110D, P111Y, L117S
VL: B9 VL with S90N
notes: as for B9
B16: mAb0119 (antibody, human IgG4 S228P, kappa)
heavy: not shown
light: B13 light with Q100A
notes: as for B9
B17: mAb0120 (antibody, human IgG4 S228P, kappa, V domains shown)
VH: B4 VH with Q1D, K13E, P41F, I49M, A89E, P111Y, L117S
VL: B9 VL with S90N
notes: as for B9
B18: mAb0113 (antibody, human IgG4 S228P, kappa)
heavy: not shown
light: B13 light with Q100A
notes: as for B9
B19: mAb0118 (antibody, human IgG4 S228P, kappa, V domains shown)
VH: B4 VH with Q1D, K13E, S30T, P41F, A89E, P111Y, L117S
VL: B9 VL with S90N
notes: as for B9
B20: mAb0114 (antibody, human IgG4 S228P, kappa, V domains shown)
VH: B4 VH with Q1D, K13E, S30T, P41F, I49M, P111Y, L117S
VL: B9 VL with S90N
notes: as for B9
B21: mAb0117 (antibody, human IgG4 S228P, kappa, V domains shown)
VH: B4 VH with Q1D, K13E, S30T, P41F, K45G, I49M, A89E, P111Y, L117S
VL: B9 VL with S90N
notes: as for B9
B22: mAb0137(OA) (antibody, human IgG4 S228P, kappa)
heavy: not shown
light: B13 light with Q100A
chain: VESKYGPPCPPCPAPEFLGGPSVFLFPPKPKDTLMISRTPEVTCVVVDVSQEDPEVQFNWYVDGVEVHNAKTKPREEQFNSTYRVVSVLTVLHQDWLNGKEYKCKVSNKGLPSSIEKTISKAKGQPREPQVYTLPPSQEEMTKNQVSLTCLVKGFYPSDIAVEWESNGQPENNYKTTPPVLDSDGSFLLYSKLTVDKSRWQEGNVFSCSVMHEALHNHYTQKSLSLSLGK
B23: mAb0139(OA) (antibody, human IgG4 S228P, kappa)
heavy: not shown
light: B13 light with Q100A
chain: B22 chain

Target: T1, recombinant human activated Factor VII …
Experiment: cell-based or functional assay

AT inhibition (kinh %)	TGT activity (% FVIIa)	Binder
23%	91 % FVIIa	B1
747%	128 % FVIIa	B2
26%	88 % FVIIa	B3

Target: T2, recombinant human activated Factor VII …
Experiment: BLI (Fortebio)

Kd	Binder
1.3 nM	B4
0.75 nM	B5
1.3 nM	B6
1.3 nM	B7
1.6 nM	B8

Target: T1, recombinant human activated Factor VII …
Experiment: Bio-Layer Interferometry (Fortebio), antibody on anti-human tips, FVIIa 25-200 nM
Description: All steps were performed in running buffer (20 mM HEPES buffer (pH 7.4), 150 mM NaCl, 5 mM CaCl2, 0.03% Tween 20, 1 mg/ml IgG-free BSA) at […] Antibodies were captured on anti-human tips (AHC, Fortebio) for 3 min at a concentration of 10 ug/ml. This was followed by a 3 min incubation to establish a baseline. Following this, association was monitored for 3 min using four different concentrations of VIIa (25 nm, 50 nM, 100 nM, and 200 nM), followed by a 3 mi dissociation. Sensorgrams were analysed using Fortebio data analysis software.

Kd	Binder
11 nM	B9
13 nM	B10
42000 nM	B11
1.5 nM	B12
1.7 nM	B13
2 nM	B14
32 nM	B15
1 nM	B16
1.7 nM	B17
1.8 nM	B18
1.7 nM	B19
1.5 nM	B20
1.4 nM	B21

Target: T2, recombinant human activated Factor VII …
Experiment: cell-based or functional assay

AT inhibition (kinh %)	TGT activity (%% FVIIa)	Binder
105%	102%	B22
110%	100%	B23
